Test results: US20090233318A1 (RECEPTOR LOGIC, published 2009)

What follows are binders tested against T1, activated soluble HLA-A*0201 (PolyTest) (human) (assay: fluorescence polarization competition against 2.2 nM standard FITC-labeled peptide P5(A*0201), 40.5 µg/ml sHLA A*0201VLDL (2507)).
T1 construct: also called sHLA
Protocol: After reaching equilibrium conditions, fluorescence polarization expressed in mP was measured. Values obtained at different peptide dilutions were graphed and inhibitory concentrations expressed as log [IC50]'s determined by fitting the data to a dose-response model.
For all preparations, 1×BGG/PBS was used as buffer. […] FP values given as milli-polarization (mP) are calculated by the equation:polarization (mP)=1000(S−GP)/(S+GP), where S and P are background-subtracted intensities of the fluorescence measured in the parallel (S) and perpendicular (P) directions, respectively, and G (grating) is the instrument and assay dependent correction factor.
Competition experiments were analyzed by plotting FPₘₐₓ (maximal polarization) values as a function of the logarithms of competitor concentrations. […] Observed inhibitory concentrations (IC₅₀) were determined by nonlinear curve fitting to a dose-response model with variable slope using the specific software Prism (Graph Pad Software Inc.; San Diego, Calif.).

Point of comparison: TMTRVLQGV (Synthetic peptide; also called TMT(40)) [TMT peptide, TMTRVLQGV (hCGβ 40-48)], “logIC50(nM)” value 3.27 log10 of nM. Against it:
- VLQGVLPAL (Synthetic peptide; also called VLQ(44)) [VLQ peptide, VLQGVLPAL (hCGβ 44-52)] — lower, 2.96 log10 of nM
- GVLPALPQV (Synthetic peptide; also called GVL(47)) [GVL peptide, GVLPALPQV (hCGβ 47-55)] — lower, 2.97 log10 of nM
